Measurements: a protein production outcome set (Wang et al. 2014)

Test: label from the status in PepcDB records
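Further: failed if final PepcDB status was selected cloned or expressed and not failed if soluble or beyond.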

For “MTHRPMLNKIKLFFIVQIILSFLVLAGTLISILVIPSHLPDYFIWAIAFSFWVFQCGFSTIFAFRYRISKSSLSTIKLSFILIGSIQILITLATNLFGIFDLPIFNTLIIKNFQFLILSLIFIVMIYKLIKDMLKYRVLKDYIIRDSFFTFIPFAFIIYKNSKYFISSIYFLDDSVYSLALLNINSLRIFLEGFLIILIFVKTIYLRGNKKSSFLLLIYFYVSNLNCYIVSYFNSKLLFSHYLYQGIGIYFICPILLMLSIYHSITEQEKAPDQVLFDDSYMNINNSWISITIGIFPVSFSAIDIISSSIASGDFNGIESLVIILLVMILLVCRDVILRKDNLRLIASVKRANEIDFLTNMYSRNYFLKKLETINTDYALFFIDIKSFKDINNIFGHVVGDKVLVEVANKFKELKLLLGKNVFYCRYSGNEFALISKLDQVDLILKFFRDLENIKIQHNSDLIHINFNIGYSLNDSNINLDLLIQETDYALMRAKKLKGPNNSILMYDDNLKTDLEHMNILKKDFKNDLLTGKFHLVFQPKVCVKTLKIVGFETLLRWKHDKLGEISPSKFVPIAENLGEISSLDLYVFKKSCEFQRCLIDKGIKLKCSVNLSLNTLKSYEKINEILNIYKEYKIPKHLITAEILENVSLNNNAKTISYINLLRENGICISIDDFGTGYSSLSQISNLYFDELKIPREFVIDARTPSKLAVIEAISILAKKLKVTSVIEGVENYEDFKLFSSLGFDIVQGYYFSKPLTKSEIIDYIKVNINNKIS”, the protein production was “failed”.
For “RDRPAGLLRINATLGFGRTHLAPAIARFRRIHPAVEVQLLLTDAPLNLVEEGIDLGIRFGAPPFGRMVMRLLQRNRRFLCAAPSYLEARGVPQSLTDLQQHSCIVLRQDHDAYDVW”, the protein production was “failed”.
For “MLNSHPKKTQSLYRAGLVVLQITESLLILALLYQAINKLIFINNYSIKFMLTFILYSPEFFMANLTTYYFIYEKFKILHSIIVITKLFQIILTLLLFILGFIFKIYVYQTSLAIILGITVVYLVFNVTILVLIKAKIKNLE”, the protein production was “failed”.
With “MKKDSTIAFTGGRILTMDSEQKYAEAVVIRGDRIAAVGGTYILKSFPDAEIRDLKNRYLLPAFIDSHNHLSSFGCLEHHHHHH” the protein production was “not failed”.
For “MGSKNESTASKASGTASEKKKIEYLDKTYEVTVPTDKIAITGSVESMEDAKLLDVHPQGAISFSGKFPDMFKDITDKAEPTGEKMEPNIEKILEMKPDVILASTKFPEKTLQKISTAGTTIPVSHISSNWKENMMLLAQLTGKEKKAKKIIADYEQDLKEIKTKINDKAKDSKALVIRIRQGNIYIYPEQVYFNSTLYGDLGLKAPNEVKAAKAQELSSLEKLSEMNPDHIFVQFSDDENADKPDALKDLEKNPIWKSLKAVKEDHVYVNSVDPLAQGGTAWSKVRFLKAAAEKLTQNLEHHHHHH”, the protein production was “not failed”.
For “MKPRISVIIPTYNREELLRRAIESVLDQTFDDFEILVIDGAKSESTRELVRSFGDGRIRYIPQKGKGIANARNLGVSKARGEFIAFLDDDDRWRRDKLELQLELFKVLPQSYGVVYTAFTYYYLEKDKVLGIKHPRASGDVYKHLLKDNITGTSTIMVKRECFKKVGLFREDFVTCEDWDMWLRMAKVCYFGAIDEPLVDYSIHSGQFSFAKYLEGRYKMIEKHLDIKRNPRVLSYHLLQIGVLKLFSGDKRGVEDLLKAFRLNPTIRGNIWDILSSFVDVRTRIYILKFLGRLLEHHHHHH”, the protein production was “not failed”.
For “MATAALSAARPNRLSSASSDVPLHPLYLPTKLQFPSRKTQLWRSAAILLPTRRRCAPPRASSRADDSPPFDMSVETALKVLGVSEGASFDEILRAKKSILASRKDDPNAISQAEAAYDMLLMQSLNQRRAGKVVSNNIRYADVKSSNPLGTSTVTQWMKNPPVSVDMPSTSDLGIQAGVYGAMMVLTYVNGSSFESSGMPYAGADVPGLILASSFGASLYFMTKKKVKLGKAAALTAGGLVAGAVVGSAIETWLHVDVVPFLGLHSPAAVVSEFIVFSQFLVSLCLR”, the protein production was “failed”.
With “MNYSKLKSIPIYFSLLAISVSNVGCVQQDVEANLTSKTLSENLDSKALRHKNKEQDIESLLAQLTLEEKISLVHANTKFANAAVERLGIHSMEMSDGPHGVRRQISRDSWKPAGWDDDQATYLPPLTAVAASWDPQMATLHGNVLGSEARHRNKDVILGPGVNLARLPLYGRNFEYLGEDPFLAAKLVVPEIIAIQANDVAATVKHFALNTQELNRHGVDATPDERTLREVYLPAFEAAVKEGNTYAMMGSYNNVYGTNANQNKHLIMDILKGEWGYQGLLMTDWDVDINTYDAAMNGLDLEMGTRAKSYDDYFLAKPLLKMIQSGKVPVAVLDDKVRRILRVQLSIGMMDKQRFSGQRNTQEHRDFSRQIATQGVVLLKNESVASANHTNTVLPLDKNKVKNILVLGPNADKKHGSGGGSSQVKSLWEITPLQGLKDKLGDNVEIQFMRARSQSGVQPIAEDFVKTNNRGTGTPAWRLIEYKTKDRNKKAAHYGWLPESSYNSPLGDVIQHINLKADIMPLASGEHVLKLGGKGNVNLVINGKEVINTTLSGDKTYQHKLTLKQGKKYVFTLGYDGADNVVLGWNAPGSPFSTKDEYLAAAKNADAVIYYAGLSHADDRESKDRSNMVLPNNQDDIISDLIAVNSTTVVFVIGGSAVEMPWAEQANAIVWGWYGGMEAGHSYADILFGDVNPSGKMPITLPKKLTDTAPIVLNDYNEKTSTYPEGVFIGYRWFEQQNIEPLFPFGHGLSYTHFSFGDISLNKDVISAGETITASVKITNTGKVAGAEVVQLYLHDEESSVPRPVKELKGFEKVFLQPGESQTVMLTLTQRDLSFWDVNTKNWLAEQGQFSVHIGSSVNDIKTSTSFSYQ” the protein production was “failed”.
For “MVVLMLCAALLVIVGCPETALGKGLRRWLVDWPAKVLAGLTPARLVLLLALLAVSTLVVVLFEVEGAILLGMALPEVAVWFMAFDVAVFIDLFAAIALAANGARLKGLGDRIKALPRRFGRGLVARVRRSGQGRQGGRRFRRPGSGATKSEDGDAGWSGAAQPGALAWA”, the protein production was “failed”.
In the case of “MSLNGKLDFSNRQARILYNKAIAKALFGLDIEYHPKGLVTTPISRYIFLKTFLRGGEVALEIGTGHTAMMALMAEKFFNCKVTATEVDEEFFEYARRNIERNNSNVRLVKSNGGIIKGVVEGTFDVIFSAPPYYDKPLGRVLTEREAIGGGKYGEEFSVKLLEEAFDHLNPGGKVALYLPDKEKLLNVIKERGIKLGYSVKDIKFKVGTRWRHSLIFFKGISEGHHHHHH”, the protein production is reported as “not failed”.
With “MSGQHRTRVGGVILAAGRSSRYESGNKLLATIDGKAVVRQVTETACKSSLSDAVAVLGHEKVAVAAALDGLSLSVQHNDEYATGQSASVRHGVEFARSAGWDAALFLLGDMPFVRVETIEELLEAYRTGTATVVVPEHEGRRGNPVLFDNCHFDSLASVSGDRGGRDIIETTEKTAFIEVSDPGVHWDIDTDADLAEFTDRRDSLLEHHHHHH” the protein production was “not failed”.
With “MDVTIERVNDFDGYNWLPLLAKSSQEGFQLVERMLRNRREESFQEDGEAMFVALSTTNQVLACGGYMKQSGQARTGRIRHVYVLPEARSHGIGTALLEKIMSEAFLTYDRLVLYSEQADPFYQGLGFQLVSGEKITHTLDKTAFADSNR” the protein production was “not failed”.
For “MKKTLILGATPETNRYAYLAAERLKSHGHEFIPVGRKKGEVLGKTIINERPVIEGVDTVTLYINPQNQLSEYNYILSLKPKRVIFNPGTENEELEEILSENGIEPVIGCTLVMLSAGTF”, the protein production was “not failed”.
For “MAGAITLACTIRFEANAEHVYLSSGTKQTVYHYPFPMSTIHITLNGERKEVPAGSTVSELLVIADADRQPVAVVVNEHIVRPDQRDSYILQERDQVEILVFAGGGLEHHHHHH”, the protein production was “not failed”.
In the case of “MTIACPQCGATAEARTDTRFHGCAFCGSSFMVERGVGIAEYHLDHERDDRVAWSAVASTLERDGAGQAVERTGCEYLVAPFWLSRPESGGNRLVPALRHPWLQGPLPGLPGGDLLFVPSGDDFILPDIPADEALGEGADRGGTSLSLVYLPLYLLSFRLAGHDCRALVSAVDRRVALLTPLPARSESVPFRHAALVAGFAITLTASGLAVKSHFLRAAVFAAVLAVAWPVCTALLRRGE”, the protein production is reported as “failed”.
In the case of “MFPQRSSELYRTPVTHQPPPALELAGNLEYPNLNIADLNARLENLSPRLHDCWDSIAINDHNHLALATNRREGRQWWGMLFGYGRDQMHHMSVDSANFKLQAEHTVNIVRYAEDDFLLVALGDTRLQAWSTYSKVRDSQSPYCLFLVGESSAHPTPISQLSVFKADPRTAVSGSADSTLNVWDLSGADMVSTYRSRSSHTDKLTGLATPAASVDKFVTCDRGGCARLWDVRAAAPSSTCLYADASHVLSFTSAAWAAASELQGDNHIYLGDYDGKVHTLDIRVPRKLAETREYFDKGHVAQLLINGPHLAAMSNLPASVKVANVQAGHEFIYTHQDTHSRLTDAVWTDDSTLITIGHGRKMVTHAIK”, the protein production is reported as “failed”.
With “MPNSRPRPRRGAGGGAGAAGRDRLVARSLQSAEHCLGDQDFGTAYAHYLLVLSLAPELKDDVKETFQYTLFKWAEELHALSRIQDLLGCYEQALELFPDDEVICNSMGEHLFRMGFRDEAAGYFHKAVKLNPDFNDAKENFYRVANWLVERWHFIMLNDTRRNMVYNAAIQKAVCLGSRTVLDIGTGTGILSMFAKKAGAQSVYACELSKTMYELACDVVAANKMENGIKLLHMKSLDIEIPKHIPERVSLVVTETVDAGVFGEGIVESLIHAWEHLLLQPKTKEENGNCGKYGKVIPAGAVIFGMAVECAEIRRHHRVGAKDIAGIHLPTNVKFQSPAYTSVDTEETVEPYTTEKMSGIPGGYLPLTECFQIMKVDFNNLQELKSLATKKPHSLNVPAIKEGVLDAIMVWFVLQLDDEYSLSTSPSEETCWEQAVYPVQALEDYCIQPGDRVTMEASCHDCYLRIQGISILHLEHEMEVMKGFTKSKDLLSLGNEAELCSALANLQTSRPEALEQTCMLEPTEIALLNNIPYHEGFKTAMRKVLSSLAPELLWQPMDTHCQYMEMNSGSGQSDAAPSTADPFYVLDVSEGFSLLPILAGTLGHVKPYSSVEKDQHCIALDLIAEANHFPKETLEFWLRHIEDEAAVLQRPKSDKLWSIIILDVIEPSGLIQQELMEKAAISRCLLQSGGKIFPQYVLMFGMLVESQTLVEESAVQGTEHTLGLNIAPFINQFQVPIRVCLDLSSLPCVPLSQPVELLRLDLMTPYLNTSNKEVKVRVCRSGRVTAVPFWFHLCLDDEVRLDTSGEASHWKQAAVVLDNPIQVQAGEELVLSVEHHKSNVSIAVKP” the protein production was “failed”.
In the case of “MTLHLPGADGTLRAYEPRTEPLPTLRATSGSAFSSRTVFSAAHVVADPYADTTPDGPAAVDWDATLAFRRHLWSHGLGVAEAMDTAQRGMGLDWPTAAELIRRSAAEARATGGRIACGVGTDQLTATAATLADVRSAYEEQLAVVEESGAQAILMASRALAATAKGPDDYLEVYGHLLRQAAEPVILHWLGPMFDPALEGYWGSSDLDAATDTFLEVIAAHPDKVDGIKVSLLDAQREIDLRRRLPRGVRCYTGDDFNYPELIAGDEQGFSHALLGIFDPLGPLAAEAVRVLDTGDTDGFRALLDPTVELSRHLFRAPTRYYKTGVVFLAWLAGHQSHFTMVGGLQSARSLPHLARAYELADGLGLFPDPKPAEERMRNLLALYGVNA”, the protein production is reported as “failed”.
For “MKKNDLSALQENCFCFCDEEISREAPFQVPIDFPEGFKVDTAEASAAVTWSTDNLSCISEPCLIQTGPEPEDIGVRYAVRVQGTITLLVSVSPVRNQYGQGDGAVSVIHTEEIDQVVYYAAQSGRCPDFSQITVEDLLIVPPFYGSPLTVAGTLVLPPSPDPQSYVFTANTGDSTVSVIDADLNTVVKTIPFSDVPTNLGVTFDKAFTYVLHGNTNLVSVIDNKTLTIINTITVGGGPRKIEFDPTDEFAYVMAAGSIYVINTASQSVIDVIPIPGALDFALDPNGQYVYTANGSSWSVDKYDVNTGQLVESIIDTFEFPSLITTPYAGNFAYVLNGELWPKGVTEISLSPLSRGGDFSRLFETLRTIVFSLDSTRAYFLEPYSEPFLINNLYVVNTARQRIIANVSLPGAFDLAVTPDKQYIYAAQPNDNAVTVYRTSDYTAVTVIPVGAGPSAIAMLEHHHHHH”, the protein production was “failed”.
For “MDVEPGKFYKGVVTRIEKYGAFINLNEQVRGLLRPRDMISLRLENLNVGDEIIVQAIDVRPEKREIDFKYIPLTTYDLVKYEKEVPLSQIKDISQNLEHHHHHH”, the protein production was “not failed”.
